Measured values taken from patent US20200369765A1 (INNATE PHARMA, published 2020).
Changes are numbered by the printed parent chain. Each block holds one binder with its values, some of them ahead of it.

How the values were obtained:
[1] = molecular target: T1, Human Siglec-9 mutant M2 (human, UniProt Q9Y336 18-463); experiment: flow cytometry, HEK293T transfectants
T1 construct: Expressed on HEK293T cells; also called Mutant 2

[2] = molecular target: T2, Human Siglec-9 mutant M5 (human, UniProt Q9Y336 18-463); experiment: flow cytometry, HEK293T transfectants
T2 construct: Expressed on HEK293T cells; also called Mutant 5
T2 sequence (Q9Y336 other isoform, or with tags, fused parts or gaps mutant): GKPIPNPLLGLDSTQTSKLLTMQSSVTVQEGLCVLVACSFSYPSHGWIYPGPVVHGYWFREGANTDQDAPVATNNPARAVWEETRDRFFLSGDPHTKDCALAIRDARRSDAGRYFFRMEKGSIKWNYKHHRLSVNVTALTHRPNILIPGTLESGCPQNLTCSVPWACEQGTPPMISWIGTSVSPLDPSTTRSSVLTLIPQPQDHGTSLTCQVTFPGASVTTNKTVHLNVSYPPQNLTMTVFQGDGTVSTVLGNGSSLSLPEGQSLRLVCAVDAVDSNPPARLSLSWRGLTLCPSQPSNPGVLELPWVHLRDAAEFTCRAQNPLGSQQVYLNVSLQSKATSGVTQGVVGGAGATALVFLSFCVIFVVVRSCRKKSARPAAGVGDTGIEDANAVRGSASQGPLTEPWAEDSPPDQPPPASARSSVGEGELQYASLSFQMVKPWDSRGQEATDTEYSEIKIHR

[3] = molecular target: T3, Human Siglec-9 mutant M6 (human, UniProt Q9Y336 18-463); experiment: flow cytometry, HEK293T transfectants
T3 construct: Expressed on HEK293T cells; also called Mutant 6
T3 sequence (Q9Y336 other isoform, or with tags, fused parts or gaps mutant): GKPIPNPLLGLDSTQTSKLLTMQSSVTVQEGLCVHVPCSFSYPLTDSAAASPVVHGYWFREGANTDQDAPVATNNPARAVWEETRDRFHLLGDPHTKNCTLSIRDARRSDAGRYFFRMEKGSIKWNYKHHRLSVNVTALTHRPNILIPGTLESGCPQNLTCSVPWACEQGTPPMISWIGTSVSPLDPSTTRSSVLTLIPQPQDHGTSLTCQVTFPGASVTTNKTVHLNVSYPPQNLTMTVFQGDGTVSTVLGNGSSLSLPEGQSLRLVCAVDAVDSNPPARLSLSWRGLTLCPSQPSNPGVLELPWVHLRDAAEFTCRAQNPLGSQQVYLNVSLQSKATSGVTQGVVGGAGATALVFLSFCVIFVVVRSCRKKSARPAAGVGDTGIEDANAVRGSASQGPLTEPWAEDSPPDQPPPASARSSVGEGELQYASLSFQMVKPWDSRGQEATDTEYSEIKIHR

[4] = molecular target: T4, Human Siglec-9 mutant M7 (human, UniProt Q9Y336 18-463); experiment: flow cytometry, HEK293T transfectants
T4 construct: Expressed on HEK293T cells; also called Mutant 7
T4 sequence (Q9Y336 other isoform, or with tags, fused parts or gaps mutant): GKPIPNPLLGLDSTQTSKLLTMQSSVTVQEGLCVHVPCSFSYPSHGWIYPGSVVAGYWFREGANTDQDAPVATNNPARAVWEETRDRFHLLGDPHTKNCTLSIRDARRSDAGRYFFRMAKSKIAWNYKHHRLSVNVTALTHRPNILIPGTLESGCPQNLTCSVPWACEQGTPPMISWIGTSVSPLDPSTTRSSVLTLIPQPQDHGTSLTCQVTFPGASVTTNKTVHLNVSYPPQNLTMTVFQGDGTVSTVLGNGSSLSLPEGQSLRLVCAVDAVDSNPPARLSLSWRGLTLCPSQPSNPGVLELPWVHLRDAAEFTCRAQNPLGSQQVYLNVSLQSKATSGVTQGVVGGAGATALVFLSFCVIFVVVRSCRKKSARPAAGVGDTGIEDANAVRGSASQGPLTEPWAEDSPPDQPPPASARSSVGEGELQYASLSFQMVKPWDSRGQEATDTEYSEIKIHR

[5] = molecular target: T5, Human Siglec-9 mutant M8 (human, UniProt Q9Y336 18-463); experiment: flow cytometry, HEK293T transfectants
T5 construct: Expressed on HEK293T cells; also called Mutant 8
T5 sequence (Q9Y336 other isoform, or with tags, fused parts or gaps mutant): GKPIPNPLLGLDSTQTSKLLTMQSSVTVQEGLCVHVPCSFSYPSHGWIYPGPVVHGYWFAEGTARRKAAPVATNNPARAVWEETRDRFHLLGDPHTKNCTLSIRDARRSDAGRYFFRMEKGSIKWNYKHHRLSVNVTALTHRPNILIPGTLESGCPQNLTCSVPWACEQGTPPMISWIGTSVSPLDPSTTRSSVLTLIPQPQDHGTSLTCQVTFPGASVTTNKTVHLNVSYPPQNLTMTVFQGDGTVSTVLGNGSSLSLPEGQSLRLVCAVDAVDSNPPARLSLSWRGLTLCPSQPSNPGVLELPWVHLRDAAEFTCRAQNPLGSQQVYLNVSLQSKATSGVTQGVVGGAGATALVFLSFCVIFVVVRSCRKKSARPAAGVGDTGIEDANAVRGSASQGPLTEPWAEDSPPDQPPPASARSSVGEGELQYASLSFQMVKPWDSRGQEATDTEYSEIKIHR

[6] = molecular target: T6, Siglec-7 Fc protein (human); experiment: SPR (Biacore T200), Fab over immobilized Siglec-7 Fc, 1:1 model
T6 construct: Produced in CHO cells; also called human Siglec-7 Fc
T6 sequence (chain, as listed by the source limits assumed): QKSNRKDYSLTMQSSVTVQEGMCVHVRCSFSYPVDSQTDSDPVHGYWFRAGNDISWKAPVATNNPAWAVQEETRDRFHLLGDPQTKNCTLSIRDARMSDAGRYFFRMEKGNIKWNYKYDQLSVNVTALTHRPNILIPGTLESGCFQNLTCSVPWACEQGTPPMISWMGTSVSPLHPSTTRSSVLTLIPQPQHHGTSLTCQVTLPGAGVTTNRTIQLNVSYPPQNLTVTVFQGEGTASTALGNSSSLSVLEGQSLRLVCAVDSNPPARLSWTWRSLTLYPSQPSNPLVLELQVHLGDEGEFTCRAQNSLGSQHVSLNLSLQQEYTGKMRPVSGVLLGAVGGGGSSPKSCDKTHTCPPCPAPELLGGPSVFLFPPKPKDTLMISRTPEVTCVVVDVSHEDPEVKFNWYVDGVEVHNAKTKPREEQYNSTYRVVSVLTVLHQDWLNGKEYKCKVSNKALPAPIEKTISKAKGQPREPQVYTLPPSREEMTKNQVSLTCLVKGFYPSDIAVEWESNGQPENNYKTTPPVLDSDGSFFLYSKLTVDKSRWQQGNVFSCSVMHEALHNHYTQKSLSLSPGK
Protocol: (§1) SPR measurements were performed on a Biacore™ T200 apparatus (Biacore™ GE Healthcare) at 25° C. In all Biacore™ experiments HBS-EP+(Biacore™ GE Healthcare) and NaOH 10 mM served as running buffer and regeneration buffer respectively. Sensorgrams were analyzed with Biacore™ T200 Evaluation software. Human siglec-9 and -7 multimeric proteins were cloned, produced and purified at Innate Pharma.
(§2) Proteins were immobilized covalently to carboxyl groups in the dextran layer on a Sensor Chip CM5. The chip surface was activated with EDC/NHS (N-ethyl-N′-(3-dimethylaminopropyl) carbodiamide hydrochloride and N-hydroxysuccinimide (Biacore™ GE Healthcare). Proteins were diluted to 10 μg/ml in coupling buffer (10 mM acetate, pH 4.2 & 5.0) and injected until the appropriate immobilization level was reached (i.e., 600 to 2000RU). Deactivation of the remaining activated groups was performed using 100 mM ethanolamine pH 8 (Biacore™, GE Healthcare).
(§3) The affinity study was carried out according to a standard Kinetic protocol recommended by the manufacturer (Biacore™ GE Healthcare kinetic wizard). […] The entire sensorgram sets were fitted using the 1:1 kinetic binding model. Monovalent affinities and kinetic association and dissociation rate constants are shown below in Table 2 below.

[7] = molecular target: T7, Siglec-9 Fc protein (human); experiment: SPR (Biacore T200), Fab over immobilized Siglec-9 Fc, 1:1 model
T7 construct: Produced in CHO cells; also called human Siglec-9 Fc
T7 sequence (chain, as listed by the source limits assumed): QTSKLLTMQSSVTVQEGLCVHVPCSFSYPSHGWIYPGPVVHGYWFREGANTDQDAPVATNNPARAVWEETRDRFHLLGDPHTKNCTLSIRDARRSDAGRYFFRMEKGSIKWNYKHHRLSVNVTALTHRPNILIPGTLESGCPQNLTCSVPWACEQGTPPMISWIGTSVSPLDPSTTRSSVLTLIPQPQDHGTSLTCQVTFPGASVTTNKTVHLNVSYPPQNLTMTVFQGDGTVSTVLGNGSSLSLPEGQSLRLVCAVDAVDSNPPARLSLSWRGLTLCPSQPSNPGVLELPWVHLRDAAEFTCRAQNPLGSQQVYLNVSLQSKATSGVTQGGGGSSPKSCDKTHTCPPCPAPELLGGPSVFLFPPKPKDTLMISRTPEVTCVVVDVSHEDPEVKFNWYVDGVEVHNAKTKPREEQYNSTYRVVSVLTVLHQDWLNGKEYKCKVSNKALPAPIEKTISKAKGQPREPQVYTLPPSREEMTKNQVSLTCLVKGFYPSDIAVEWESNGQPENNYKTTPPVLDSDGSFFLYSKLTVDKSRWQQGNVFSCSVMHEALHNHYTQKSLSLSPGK
Protocol: as §1, §2, §3

[8] = molecular target: T8, Human Siglec-9 mutant M11 (human, UniProt Q9Y336 18-463); experiment: flow cytometry, HEK293T transfectants; '-' indicates full loss of binding
T8 construct: Expressed on HEK293T cells; also called Mutant 11
T8 sequence (Q9Y336 other isoform, or with tags, fused parts or gaps mutant): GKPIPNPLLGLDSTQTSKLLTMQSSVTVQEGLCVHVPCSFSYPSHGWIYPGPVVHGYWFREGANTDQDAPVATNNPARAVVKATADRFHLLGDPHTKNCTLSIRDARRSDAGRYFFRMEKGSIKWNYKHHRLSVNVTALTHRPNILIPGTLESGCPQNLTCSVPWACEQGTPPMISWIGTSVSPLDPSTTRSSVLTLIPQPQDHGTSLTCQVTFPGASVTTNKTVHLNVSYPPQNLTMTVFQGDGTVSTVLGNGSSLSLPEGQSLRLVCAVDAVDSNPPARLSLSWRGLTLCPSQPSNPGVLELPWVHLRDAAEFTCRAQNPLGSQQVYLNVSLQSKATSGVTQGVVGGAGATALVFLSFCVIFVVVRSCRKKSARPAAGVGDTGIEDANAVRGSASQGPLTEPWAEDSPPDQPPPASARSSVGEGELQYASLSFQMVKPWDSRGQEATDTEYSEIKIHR

[9] = molecular target: T9, Human Siglec-9 (human, UniProt Q9Y336 18-463); experiment: flow cytometry, CHO Siglec-9 cells, mean n = 2
T9 construct: On transfected CHO cells; also on YTS and KHYG-1 transfectants, primary NK cells and moDC; also called huSiglec-9; CD329
T9 sequence (Q9Y336 18-463): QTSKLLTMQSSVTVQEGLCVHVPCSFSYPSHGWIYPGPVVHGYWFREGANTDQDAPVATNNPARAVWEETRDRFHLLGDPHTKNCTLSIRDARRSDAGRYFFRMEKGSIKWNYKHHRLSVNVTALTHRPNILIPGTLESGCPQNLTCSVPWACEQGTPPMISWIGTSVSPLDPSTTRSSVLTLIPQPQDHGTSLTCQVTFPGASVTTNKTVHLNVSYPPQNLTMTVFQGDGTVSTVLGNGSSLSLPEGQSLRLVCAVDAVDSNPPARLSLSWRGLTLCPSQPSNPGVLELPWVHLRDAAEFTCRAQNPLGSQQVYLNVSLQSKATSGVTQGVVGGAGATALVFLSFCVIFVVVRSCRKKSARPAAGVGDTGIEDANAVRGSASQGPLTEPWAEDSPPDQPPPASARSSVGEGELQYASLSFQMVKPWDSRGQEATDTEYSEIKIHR
Protocol: Binding of humanized antibodies was tested on CHO cells transfected with human Siglec-9, in a titration experiment by flow cytometry. Cells were incubated 90 minutes at 37° C. in Staining Buffer (SB) with primary antibodies at 10 ug/ml and a series of dilution of 1:10. They were washed three times with SB, then incubated 30 minutes with a goat F(ab′)² Anti-human IgG (Fc) PE. EC₅₀ values (μg/ml) for Siglec-9 expressing cells are shown below.

T1 sequence (Q9Y336 other isoform, or with tags, fused parts or gaps mutant): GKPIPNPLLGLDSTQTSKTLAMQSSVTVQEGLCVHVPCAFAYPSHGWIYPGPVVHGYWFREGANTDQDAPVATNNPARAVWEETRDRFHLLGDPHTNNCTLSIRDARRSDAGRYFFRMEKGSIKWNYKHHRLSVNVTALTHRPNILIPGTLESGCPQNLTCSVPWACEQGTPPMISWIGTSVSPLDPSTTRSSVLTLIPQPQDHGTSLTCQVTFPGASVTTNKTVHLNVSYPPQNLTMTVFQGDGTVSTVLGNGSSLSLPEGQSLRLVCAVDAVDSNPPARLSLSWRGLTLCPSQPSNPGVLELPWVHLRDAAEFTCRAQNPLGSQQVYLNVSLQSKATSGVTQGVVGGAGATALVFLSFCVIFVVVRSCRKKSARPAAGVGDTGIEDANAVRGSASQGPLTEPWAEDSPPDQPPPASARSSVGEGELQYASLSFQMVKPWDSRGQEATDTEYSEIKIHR

- binding result [1]: binds
- binding result [2]: binds
- binding result [3]: binds
- binding result [4]: binds
- binding result [5]: binds
- Kd [6]: 0.06 nM
- koff [6]: 4e-05 s⁻¹
- Kd [7]: 0.4 nM
- koff [7]: 0.00016 s⁻¹
- binding result [8]: no binding
B1: Fab1 (Fab of mAb1) (Fab, V domains shown)
VH: DVQLQESGPGLVKPSQSLSLTCTVTGYSITGGFAWNWIRQFPGNTLEWMGYIGYGGSTSYNPSLNSRISITRDTSKNHFFLQFNSVTTDDSATYYCARGDYLFAYWGQGTLVTVSA
VL: DIVMTQSHKFMSTSVGDRVSITCKASQDVNTAVAWYQQKPGQSPKLLIYSASYRYTGVPDRFTGSGSGTDFTFTISSVQAEDLAVYYCQQHYSTPRTFGGGTKLEIK

- Kd [6]: 0.07 nM
- koff [6]: 4e-05 s⁻¹
- Kd [7]: 0.8 nM
- koff [7]: 0.00017 s⁻¹
B2: Fab2 (Fab of mAb2) (Fab, V domains shown)
VH: B1 VH with D1E, D89E
VL: B1 VL
notes: Fab fragment of the antibody

- binding result [1]: binds
- binding result [2]: binds
- binding result [3]: binds
- binding result [4]: binds
- Kd [7]: 1 nM
- koff [7]: 0.00046 s⁻¹
- binding result [8]: no binding
B3: Fab.F (Fab of mAbF) (Fab, V domains shown)
VH: QVQLQQSGPEVVRPGVSVKISCKGSGYTFTDYSMHWVKQSHAKSLEWIGVISTYNGNTNYNQKFKGKATMTVDKSSSTAYMELARLTSEDSAIYYCARRGYYGSSSWFGYWGQGTLVTVSA
VL: DIVMTQSQKFMSTSVGDRVSVTCKASQNVGTDVAWYQQKPGQSPEALIYSASYRYSGVPDRFTGSGSGADFTLTISNVQSEDLAEYFCQQYNSFPYTFGGGTKLEIK

- binding result [1]: binds
- binding result [2]: binds
- binding result [3]: binds
- binding result [4]: binds
- Kd [7]: 1 nM
- koff [7]: 0.0019 s⁻¹
- binding result [8]: no binding
B4: Fab.E (Fab of mAbE) (Fab, V domains shown)
VH: DVQLVESGGGLVQPGGSRKLSCAASGFTFSTFGMHWVRQAPEKGLEWVAYISSGSNAIYYADTVKGRFTISRDNPKNTLFLQMTSLRSEDTAMYYCASPGYGAWFAYWGQGTLVTVSA
VL: ENVLTQSPAIMSASPGEKVTMTCRASSSVSSAYLHWYQQKSGASPKLWIYSTSNLASGVPARFSGSGSGTSYSLTISSVEAEDAATYYCQQYSAYPYTFGGGTKLEIK

- EC50 [9]: 0.015 µg/mL
B5: mAbD H1L1 (antibody, V domains shown)
VH: QVQLVQSGSELKKPGASVKVSCKASGYTFTDYSMHWVRQAPGQGLKWMGWIITETGEPTYADDFRGRFVFSLDTSVSTAYLQISSLKAEDTAVYYCARDFDGYWGQGTTVTVSS
VL: DIQMTQSPSSLSASVGDRVTITCRASENIYSYLAWYQQKPGKAPKFLIYNAKTLTEGVPSRFSGSGSGTDFTLTISSLQPEDFATYYCQHHYGFPWTFGGGTKVEIK
notes: constant region not specified

- EC50 [9]: 0.021 µg/mL
B6: mAbD H2L2 (antibody, V domains shown)
VH: B5 VH with Y95F
VL: B5 VL with S63R
notes: constant region not specified

- EC50 [9]: 0.01 µg/mL
B7: mAbD H0L1 (antibody, V domains shown)
VH: B5 VH with K46E
VL: B5 VL
notes: constant region not specified

- EC50 [9]: 0.016 µg/mL
B8: mAbD H2L1 (antibody, V domains shown)
VH: B5 VH with Y95F
VL: B5 VL
notes: constant region not specified

- EC50 [9]: 0.019 µg/mL
B9: mAbD H0L0 (antibody, V domains shown)
VH: B5 VH with K46E
VL: B5 VL with F46L
notes: constant region not specified

- EC50 [9]: 0.02 µg/mL
B10: mAbD H0L2 (antibody, V domains shown)
VH: B5 VH with K46E
VL: B5 VL with S63R
notes: constant region not specified

- EC50 [9]: 0.019 µg/mL
B11: mAbD H1L0 (antibody, V domains shown)
VH: B5 VH
VL: B5 VL with F46L
notes: constant region not specified

- EC50 [9]: 0.019 µg/mL
B12: mAbD H1L2 (antibody, V domains shown)
VH: B5 VH
VL: B5 VL with S63R
notes: constant region not specified

- EC50 [9]: 0.03 µg/mL
B13: mAbD H2L0 (antibody, V domains shown)
VH: B5 VH with Y95F
VL: B5 VL with F46L
notes: constant region not specified

- EC50 [9]: 0.033 µg/mL
B14: mAbA H1L1 (antibody, V domains shown)
VH: QVQLVQSGAEVKKPGSSVKVSCKASGGTFSSYWMHWVRQAPGQGLEWMGEINPSNGHTNYNEKFESRVTITADESTSTAYMELSSLRSEDTAVYYCANGVESYDFDDALDYWGQGTTVTVSS
VL: DIQMTQSPSSLSASVGDRVTITCRASQDINNYLNWYQQKPGKAPKLLIYYTSRLHSGVPSRFSGSGSGTDYTFTISSLQPEDIATYYCQQGNTLPFTFGGGTKVEIK
notes: constant region not specified

- EC50 [9]: 0.013 µg/mL
B15: mAbA H0L1 (antibody, V domains shown)
VH: B14 VH with N98R
VL: B14 VL
notes: constant region not specified

- EC50 [9]: 0.034 µg/mL
B16: mAbA H2L0 (antibody, V domains shown)
VH: B14 VH with G26Y, G27F
VL: B14 VL with Y71F
notes: constant region not specified

- EC50 [9]: 0.074 µg/mL
B17: mAbA H3L2 (antibody, V domains shown)
VH: B14 VH with G26Y, G27F, E74R
VL: B14 VL with P44I
notes: constant region not specified

- EC50 [9]: 0.044 µg/mL
B18: mAbA H3L1 (antibody, V domains shown)
VH: B14 VH with G26Y, G27F, E74R
VL: B14 VL
notes: constant region not specified

- EC50 [9]: 0.037 µg/mL
B19: mAbA H1L2 (antibody, V domains shown)
VH: B14 VH
VL: B14 VL with P44I
notes: constant region not specified

- EC50 [9]: 0.032 µg/mL
B20: mAbA H2L2 (antibody, V domains shown)
VH: B14 VH with G26Y, G27F
VL: B14 VL with P44I
notes: constant region not specified

- EC50 [9]: 0.029 µg/mL
B21: mAbA H2L1 (antibody, V domains shown)
VH: B14 VH with G26Y, G27F
VL: B14 VL
notes: constant region not specified

- EC50 [9]: 0.12 µg/mL
B22: mAbA H3L0 (antibody, V domains shown)
VH: B14 VH with G26Y, G27F, E74R
VL: B14 VL with Y71F
notes: constant region not specified

- EC50 [9]: 0.045 µg/mL
B23: mAbA H1L0 (antibody, V domains shown)
VH: B14 VH
VL: B14 VL with Y71F
notes: constant region not specified

- EC50 [9]: 0.034 µg/mL
B24: mAbA H0L2 (antibody, V domains shown)
VH: B14 VH with N98R
VL: B14 VL with P44I
notes: constant region not specified

- EC50 [9]: 0.04 µg/mL
B25: mAbA H0L0 (antibody, V domains shown)
VH: B14 VH with N98R
VL: B14 VL with Y71F
notes: constant region not specified
